Data from US20230062712A1 (SILVERBACK THERAPEUTICS, published 2023).

T1: rat ASGR1 on CHO-S cells (rat, UniProt P02706 1-284)
T1 construct: whole, on cells
T1 sequence (looked up): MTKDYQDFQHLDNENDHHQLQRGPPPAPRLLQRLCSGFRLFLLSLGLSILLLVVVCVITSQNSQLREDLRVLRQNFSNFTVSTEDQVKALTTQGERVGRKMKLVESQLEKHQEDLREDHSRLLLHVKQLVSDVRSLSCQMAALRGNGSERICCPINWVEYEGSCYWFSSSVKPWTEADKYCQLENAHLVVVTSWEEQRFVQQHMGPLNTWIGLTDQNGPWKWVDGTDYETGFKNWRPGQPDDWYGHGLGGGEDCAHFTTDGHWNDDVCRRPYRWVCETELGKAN

T2: His-tagged rat C-type lectin domain family 10 member A (CLEC10A) extracellular domain (rat) (UniProt P49301)
T2 sequence (looked up): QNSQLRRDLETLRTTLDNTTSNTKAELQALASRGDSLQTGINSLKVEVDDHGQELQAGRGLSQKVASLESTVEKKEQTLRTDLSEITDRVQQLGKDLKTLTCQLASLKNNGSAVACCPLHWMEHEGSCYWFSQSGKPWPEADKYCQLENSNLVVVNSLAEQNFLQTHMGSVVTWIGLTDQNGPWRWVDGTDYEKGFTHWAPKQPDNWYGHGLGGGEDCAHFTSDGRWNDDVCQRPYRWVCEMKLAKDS


How the values were obtained:
rat ASGR1 on CHO-S cells = molecular target: T1, rat ASGR1 on CHO-S cells; assay: flow cytometry (Guava) on CHO-S cells transfected with rat ASGR1
Description: Anti-human ASGR1 antibodies of this disclosure were examined for cross-reactivity with Cynomolgus macaque and rat ASGR1. Briefly, sequence encoding Cynomolgus macaque or rat ASGR1 was transiently transfected into CHO-S cells. Transfected cells were before performing cell binding assay. A total of about 1.5×10⁴ transfected cells/well were added to 96-well V-bottom assay plate, incubated at 37° C., 5% CO2 for 48-72 hours, and then washed with culture medium before adding 100 μl of each ASGR1 antibody at different concentrations starting from 100 nM and 3-fold dilutions to a total of eight wells. The cells with antibody were incubated for 40 minutes at 4° C., then washed three times with 200 μl of fresh culture medium. To each well was added 50 μl PE conjugated goat anti-human Fc (SouthernBiotech) at 1:200 dilution in culture medium and then incubated at 4° C. for 20 minutes. After washing the plate once, the treated cells were resuspended in 200 μl culture medium and then the stained cells were analyzed on GUAVA® using Incyte software.

[1] = molecular target: T2, His-tagged rat C-type lectin domain family 10 member A (CLEC10A) extracellular domain (rat); assay: Octet, biotinylated mAb on streptavidin sensors, monomeric rat CLEC10A ECD from 200 nM in 3x dilutions, bivalent binding model
[2] = molecular target: T2, His-tagged rat C-type lectin domain family 10 member A (CLEC10A) extracellular domain (rat); assay: Octet, His-tagged rat CLEC10A ECD on Penta-His sensors, antibody at 25 µg/mL

| Kd [1] | Response (nm) [2] | Binder | binding result (rat ASGR1 on CHO-S cells) |
| --- | --- | --- | --- |
| – | – | hzH8K-1 (antibody, V domains shown, IgG1 and kappa constant regions) VH: QVQLQESGPGLVKPSQTLSLTCTVSGGSISSDYAWNWIRQHPGKGLEWIGYRSYRGSTSYNPSLKSRVTISVDTSKNQFSLKLSSVTAADTAVYYCARRGYYGSSSHWYFDVWGQGTTVTVSS VL: DIQMTQSPSSLSASVGDRVTITCRASENIYSYLAWYQQKPGKAPKLLIYNAKTLAEGVPSRFSGSGSGTDFTLTISSLQPEDFATYYCQHHYGTPLTFGGGTKVEIK | no binding (tested: starting from 100 nM) |
| – | – | hzL4L-7 (antibody, V domains shown, IgG1 and kappa constant regions) VH: QVQLQESGPGLVKPSQTLSLTCTVSGYSISSDYAWNWIRQHPGKGLEWIGYISYSGSTRYNPSLKSRVTITRDTSKNQFSLKLSSVTAADTAVYYCARRYRYDEGYGMDYWGQGTTVTVSS VL: DIQMTQSPSSLSASVGDRVTITCRASENIYSNLAWYQQKPGKAPKLLIYAATNLADGVPSRFSGSGSGTDFTLTISSLQPEDFATYYCQHFWGTPPWTFGGGTKVEIK | no binding (tested: starting from 100 nM) |
| 28.1 nM | 0.598 nm | ASGR1 mAb-B (antibody, from another filing, V domains shown) VH: EVQLVESGGGLVKPGGSLRLSCAASGFTFSSYSMNWVRQAPGKGLEWVSSISGSSSYIYYADSVKGRFTISRDNAKNSLYLQMNSLRAEDTAVYFCARGGSRGFDPWGQGTLVTVSS VL: DIQMTQSPSSLSASVGDRVTITCRASQSITSYLNWYQQKPGKAPKLLIYTASSLQSGVPSRFSGSGSGTDFTLTISSLQPEDFATYYCQQSHSFPFTFGPGTKVDIK | – |
